Assay results as given in US20150087577A1 (POLYPHOR, published 2015).
Bridges are numbered along the chain shown (N, C = ends). Primed or numbered codes have the meaning given here. [ ]: non-standard residue; d: D form. 2Nal = N[C@@H](Cc1ccc2ccccc2c1)C(=O)O; Cit = NC(=O)NCCC[C@H](N)C(=O)O; Dab = NCC[C@H](N)C(=O)O; Pip′ = not defined here

B1: Example 31 (peptide)
peptide: cyclo(YR[Cit]VR[Cit]PRR[2Nal]FY[Cit]K[dP]P)
SMILES: CC(C)[C@@H]1NC(=O)[C@H](CCCNC(N)=O)NC(=O)[C@H](CCCNC(=N)N)NC(=O)[C@H](Cc2ccc(O)cc2)NC(=O)[C@@H]2CCCN2C(=O)[C@H]2CCCN2C(=O)[C@H](CCCCN)NC(=O)[C@H](CCCNC(N)=O)NC(=O)[C@H](Cc2ccc(O)cc2)NC(=O)[C@H](Cc2ccccc2)NC(=O)[C@H](Cc2ccc3ccccc3c2)NC(=O)[C@H](CCCNC(=N)N)NC(=O)[C@H](CCCNC(=N)N)NC(=O)[C@@H]2CCCN2C(=O)[C@H](CCCNC(N)=O)NC(=O)[C@H](CCCNC(=N)N)NC1=O
B2: Example 152 (peptide)
peptide: cyclo(YR[Cit][Dab]RG[dP]RRWEY[Cit]K[dP]P)
modifications: lactam 4-11
SMILES: N=C(N)NCCC[C@@H]1NC(=O)[C@@H]2CCNC(=O)CC[C@H](NC(=O)[C@H](Cc3c[nH]c4ccccc34)NC(=O)[C@H](CCCNC(=N)N)NC(=O)[C@H](CCCNC(=N)N)NC(=O)[C@H]3CCCN3C(=O)CNC1=O)C(=O)N[C@@H](Cc1ccc(O)cc1)C(=O)N[C@@H](CCCNC(N)=O)C(=O)N[C@@H](CCCCN)C(=O)N1CCC[C@@H]1C(=O)N1CCC[C@H]1C(=O)N[C@@H](Cc1ccc(O)cc1)C(=O)N[C@@H](CCCNC(=N)N)C(=O)N[C@@H](CCCNC(N)=O)C(=O)N2
B3: Example 153 (peptide)
peptide: cyclo(YR[Cit]ERG[dP]RRW[Dab]Y[Cit]K[dP]P)
modifications: lactam 4-11
SMILES: N=C(N)NCCC[C@@H]1NC(=O)[C@@H]2CCC(=O)NCC[C@H](NC(=O)[C@H](Cc3c[nH]c4ccccc34)NC(=O)[C@H](CCCNC(=N)N)NC(=O)[C@H](CCCNC(=N)N)NC(=O)[C@H]3CCCN3C(=O)CNC1=O)C(=O)N[C@@H](Cc1ccc(O)cc1)C(=O)N[C@@H](CCCNC(N)=O)C(=O)N[C@@H](CCCCN)C(=O)N1CCC[C@@H]1C(=O)N1CCC[C@H]1C(=O)N[C@@H](Cc1ccc(O)cc1)C(=O)N[C@@H](CCCNC(=N)N)C(=O)N[C@@H](CCCNC(N)=O)C(=O)N2
B4: Example 28 (peptide)
peptide: cyclo(YR[Cit]FRVPRR[2Nal]FY[Cit]K[dP]P)
SMILES: CC(C)[C@@H]1NC(=O)[C@H](CCCNC(=N)N)NC(=O)[C@H](Cc2ccccc2)NC(=O)[C@H](CCCNC(N)=O)NC(=O)[C@H](CCCNC(=N)N)NC(=O)[C@H](Cc2ccc(O)cc2)NC(=O)[C@@H]2CCCN2C(=O)[C@H]2CCCN2C(=O)[C@H](CCCCN)NC(=O)[C@H](CCCNC(N)=O)NC(=O)[C@H](Cc2ccc(O)cc2)NC(=O)[C@H](Cc2ccccc2)NC(=O)[C@H](Cc2ccc3ccccc3c2)NC(=O)[C@H](CCCNC(=N)N)NC(=O)[C@H](CCCNC(=N)N)NC(=O)[C@@H]2CCCN2C1=O
B5: Example 149 (peptide)
peptide: cyclo(YR[Cit]CRG[dP]RRYCYQK[dQ]P)
modifications: disulfide 4-11
SMILES: N=C(N)NCCC[C@@H]1NC(=O)[C@@H]2CSSC[C@H](NC(=O)[C@H](Cc3ccc(O)cc3)NC(=O)[C@H](CCCNC(=N)N)NC(=O)[C@H](CCCNC(=N)N)NC(=O)[C@H]3CCCN3C(=O)CNC1=O)C(=O)N[C@@H](Cc1ccc(O)cc1)C(=O)N[C@@H](CCC(N)=O)C(=O)N[C@@H](CCCCN)C(=O)N[C@H](CCC(N)=O)C(=O)N1CCC[C@H]1C(=O)N[C@@H](Cc1ccc(O)cc1)C(=O)N[C@@H](CCCNC(=N)N)C(=O)N[C@@H](CCCNC(N)=O)C(=O)N2
B6: Example 158 (peptide)
peptide: RRWCYQKGYXPYGYRXCRGP
modifications: D-Pro at P10; Cit at P16; disulfide Cys P4-Cys P17; backbone-cyclic via template Gly-LPro
B7: Example 151 (peptide)
peptide: cyclo(YR[Cit]SRG[dP]RRWNY[Cit]K[dP]P)
SMILES: N=C(N)NCCC[C@@H]1NC(=O)[C@H](CO)NC(=O)[C@H](CCCNC(N)=O)NC(=O)[C@H](CCCNC(=N)N)NC(=O)[C@H](Cc2ccc(O)cc2)NC(=O)[C@@H]2CCCN2C(=O)[C@H]2CCCN2C(=O)[C@H](CCCCN)NC(=O)[C@H](CCCNC(N)=O)NC(=O)[C@H](Cc2ccc(O)cc2)NC(=O)[C@H](CC(N)=O)NC(=O)[C@H](Cc2c[nH]c3ccccc23)NC(=O)[C@H](CCCNC(=N)N)NC(=O)[C@H](CCCNC(=N)N)NC(=O)[C@H]2CCCN2C(=O)CNC1=O
B8: Example 32 (peptide)
peptide: cyclo(YR[Cit]VRV[dP]RR[2Nal]FY[Cit]K[dP]P)
SMILES: CC(C)[C@@H]1NC(=O)[C@H](CCCNC(N)=O)NC(=O)[C@H](CCCNC(=N)N)NC(=O)[C@H](Cc2ccc(O)cc2)NC(=O)[C@@H]2CCCN2C(=O)[C@H]2CCCN2C(=O)[C@H](CCCCN)NC(=O)[C@H](CCCNC(N)=O)NC(=O)[C@H](Cc2ccc(O)cc2)NC(=O)[C@H](Cc2ccccc2)NC(=O)[C@H](Cc2ccc3ccccc3c2)NC(=O)[C@H](CCCNC(=N)N)NC(=O)[C@H](CCCNC(=N)N)NC(=O)[C@H]2CCCN2C(=O)[C@H](C(C)C)NC(=O)[C@H](CCCNC(=N)N)NC1=O
B9: Example 52 (peptide)
peptide: cyclo(YR[Cit]CRGGRR[2Nal]CY[Cit]K[dP]P)
modifications: disulfide 4-11
SMILES: N=C(N)NCCC[C@@H]1NC(=O)CNC(=O)CNC(=O)[C@H](CCCNC(=N)N)NC(=O)[C@@H]2CSSC[C@H](NC(=O)[C@H](Cc3ccc4ccccc4c3)NC(=O)[C@H](CCCNC(=N)N)NC1=O)C(=O)N[C@@H](Cc1ccc(O)cc1)C(=O)N[C@@H](CCCNC(N)=O)C(=O)N[C@@H](CCCCN)C(=O)N1CCC[C@@H]1C(=O)N1CCC[C@H]1C(=O)N[C@@H](Cc1ccc(O)cc1)C(=O)N[C@@H](CCCNC(=N)N)C(=O)N[C@@H](CCCNC(N)=O)C(=O)N2

Biological target: human CXCR4 (human, UniProt P61073 1-352)
Assay: cell-based or functional assay

Sequence of human CXCR4 (P61073 whole entry): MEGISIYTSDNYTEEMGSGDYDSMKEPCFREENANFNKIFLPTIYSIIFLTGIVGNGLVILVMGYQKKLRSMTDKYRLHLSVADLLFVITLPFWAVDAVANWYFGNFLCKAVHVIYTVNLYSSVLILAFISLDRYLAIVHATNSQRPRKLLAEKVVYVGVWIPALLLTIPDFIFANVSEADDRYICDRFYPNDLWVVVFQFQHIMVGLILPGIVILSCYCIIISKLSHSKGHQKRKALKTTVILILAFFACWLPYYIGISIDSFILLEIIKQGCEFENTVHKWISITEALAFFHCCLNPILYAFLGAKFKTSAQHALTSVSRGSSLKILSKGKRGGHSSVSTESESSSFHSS

| Binder | IC50 (nM) Ca2+ assay (method 1) | IC50 (nM) Ca2+ assay (method 2) | IC50 (µM) Cell migration assay |
| --- | --- | --- | --- |
| B1 | 1470 nM | – | – |
| B2 | – | 4.2 nM | – |
| cyclo([Pip′]RYCYQK[dP]PYR[Cit]CRG[dP]) (disulfide 4-13) [Example 150] | – | 1.4 nM | – |
| B3 | – | 21.9 nM | – |
| RRWCYQKGYKGYGYRXCRGX (Cit at P16; disulfide Cys P4-Cys P17; backbone-cyclic via template Gly-DPro) [Example 156] | – | 49 nM | – |
| cyclo(RRWCYRKCYKGYCYRKCRG[dP]) (disulfide 8-13, 4-17) [Example 160] | – | 0.38 nM | – |
| B4 | 2680 nM | – | – |
| B5 | – | 1 nM | – |
| RRYCYQKGYXPYGYRTCRGP (D-Pro at P10; disulfide Cys P4-Cys P17; backbone-cyclic via template Gly-LPro) [Example 159] | – | 118 nM | – |
| cyclo(RRWCYQKCYKGYCYR[Cit]CRG[dP]) (disulfide 8-13, 4-17) [Example 155] | – | 0.46 nM | – |
| B6 | – | 250 nM | – |
| RRWCYQKGYXGYGYRXCRGX (Cit at P16; disulfide Cys P4-Cys P17; backbone-cyclic via template Gly-DPro) [Example 157] | – | 11.3 nM | – |
| B7 | – | 4.2 nM | – |
| B8 | 760 nM | – | – |
| B9 | 3.1 nM | – | 2.75 µM |
| cyclo(RR[2Nal]CY[Cit]KCYKGYCYR[Cit]CRG[dP]) (disulfide 8-13, 4-17) [Example 154] | – | 9.3 nM | – |
